Test results published in PMC11329700, “Dynamin 1xA interacts with Endophilin A1 via its spliced long C-terminus for ultrafast endocytosis” (The EMBO Journal, 2024).
Numbering of substitutions follows the chain as printed.

T1: GST-Dyn1xA-PRR (dynamin 1xA proline-rich region, amino acids 746-864) (rat, UniProt P21575 746-864)
T1 construct: also called full-length Dyn1xA-PRR; source: E. coli JM109; GST fusion on GSH-sepharose beads (pull-down), GST-tagged in solution (ELISA)
T1 sequence (looked up): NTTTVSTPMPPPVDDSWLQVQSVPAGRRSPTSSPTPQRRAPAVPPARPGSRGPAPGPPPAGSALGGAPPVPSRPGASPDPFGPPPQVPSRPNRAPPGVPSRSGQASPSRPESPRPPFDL

T2: Dyn1xA-PRR 746-864 (GST tag removed) (rat, UniProt P21575 746-864)
T2 construct: For SEC-MALS the removal is surmised from the predicted 19.4 kDa of the 1:1 complex; source: E. coli, 15N- or 15N,13C-labelled for NMR, GST cleaved, purified by gel filtration
T2 sequence (looked up): T1 sequence (looked up)

T3: GST-dyn1xA-PRR R838A (rat, UniProt P21575 746-864, R838A)
T3 construct: also called R838A (Dyn1xA-PRR); source: E. coli JM109; GST fusion on GSH-sepharose beads
T3 sequence (looked up): T1 sequence (looked up) with R93A

B1: His-tagged mouse Endophilin A1 SH3 domain (domain or fragment)
chain: not shown
notes: Endophilin A1, mouse, SH3 domain; The methods describe only a GST-Endophilin A1-SH3 construct (mouse, amino acids 292-352); the His-tagged construct of the ELISA is not described; also called His-tagged mouse Endophilin-SH3 domain
B2: Endophilin A1 SH3 domain (GST tag removed) (domain or fragment)
chain: not shown
notes: Endophilin A1, mouse, SH3 domain, amino acids 292-352 (methods); the results print residues D291-H352; Cleavage is stated for the NMR experiments; for SEC-MALS it is surmised from the predicted 19.4 kDa of the 1:1 complex; also called endophilin SH3; Endophilin A SH3; source: E. coli JM109, GST fusion, GST cleaved, purified by gel filtration
B3: Endophilin A1 (natural protein, UniProt O35179 1-352, looked up)
chain: MSVAGLKKQFHKATQKVSEKVGGAEGTKLDDDFKEMERKVDVTSRAVMEIMTKTIEYLQPNPASRAKLSMINTMSKIRGQEKGPGYPQAEALLAEAMLKFGRELGDDCNFGPALGEVGEAMRELSEVKDSLDMEVKQNFIDPLQNLHDKDLREIQHHLKKLEGRRLDFDYKKKRQGKIPDEELRQALEKFDESKEIAESSMFNLLEMDIEQVSQLSALVQAQLEYHKQAVQILQQVTVRLEERIRQASSQPRREYQPKPRMSLEFATGDGTQPNGGLSHTGTPKPAGVQMDQPCCRALYDFEPENEGELGFKEGDIITLTNQIDENWYEGMLHGQSGFFPINYVEILVALPH
notes: Endophilin-A1, rat, endogenous full-length protein of nerve terminals; The Western blots are probed with antibodies to Endophilin A; also called 40 kDa protein; source: endogenous, rat brain synaptosomal lysate
B4: GST-Dyn1xA-PRR 806-864 (domain or fragment, rat, UniProt P21575 806-864, looked up)
chain: GSALGGAPPVPSRPGASPDPFGPPPQVPSRPNRAPPGVPSRSGQASPSRPESPRPPFDL
notes: source: E. coli JM109; GST fusion on GSH-sepharose beads (pull-down), GST-tagged in solution (ELISA)
B5: Amphiphysin 1 (natural protein, UniProt O08838 1-683, looked up)
chain: MADIKTGIFAKNVQKRLNRAQEKVLQKLGKADETKDEQFEEYVQNFKRQEAEGTRLQRELRGYLAAIKGMQEASMKLTESLHEVYEPDWYGREDVKMVGEKCDVLWEDFHQKLVDGSLLTLDTYLGQFPDIKNRIAKRSRKLVDYDSARHHLEALQSSKRKDESRISKAEEEFQKAQKVFEEFNVDLQEELPSLWSRRVGFYVNTFKNVSSLEAKFHKEIAVLCHKLYEVMTKLGDQHADKAFSIQGAPSDSGPLRIAKTPSPPEEASPLPSPTASPNHTLAPASPAPVRPRSPSQTRKGPPVPPLPKVTPTKELQQENIINFFEDNFVPEINVTTPSQNEVLEVKKEETLLDLDFDPFKPDVTPAGSAAATHSPMSQTLPWDLWTTSTDLVQPASGGSFNDFTQPQDTSLFTMQTDQNMAETEQALPTEPQAEEPPTTAAAPTAGLDLGLEMEEPKEEAAIPPGTDAGETVGTEGSTGEEAEAEKAALPAGEGESPEGAKIDVESTELASSESPQAAELEAGAPQEKVIPSVVIEPASNHEGEEHQETTTGTETREATEDVAPQGPAGEKQELATEPTPLDSQAATPAPAGAVDASLSAGDAAQELPPGFLYKVETLHDFEAANSDELTLQRGDVVLVVPSDSEADQDAGWLVGVKESDWLQYRDLATYKGLFPENFTRHLE
notes: Amphiphysin 1, rat, endogenous in synaptosomes, detected by Western blot; also called Amphiphysin I; source: endogenous, rat brain synaptosomal lysate

What was measured:
[1] = biological target: T1, GST-Dyn1xA-PRR (dynamin 1xA …); assay: ELISA; His-tagged mouse Endophilin A1 SH3 domain coated onto a 96-well plate, overlaid with increasing concentrations of GST-tagged Dyn1-PRR peptides; two experiments with four replicates each; conditions: both partners purified
[2] = biological target: T2, Dyn1xA-PRR 746-864 (GST tag removed); assay: SEC-MALS; Superdex 75 10/300 GL, 20 mM HEPES, 100 mM NaCl, 1 mM DTT, 1 mM PMSF, pH 7.2; complex at 0.5 mg and diluted to one third (0.167 mg); conditions: both partners purified
[3] = biological target: T3, GST-dyn1xA-PRR R838A; assay: pull-down; GST fusion proteins on GSH-sepharose beads incubated with pre-cleared rat brain synaptosomal lysate (20 mM Tris pH 7.4, 150 mM NaCl, 1% Triton X-100, 1 mM EDTA, 1 mM EGTA) at 4 °C for 1 h; bound proteins by Coomassie stain or Western blot (some blots quantified by densitometry); conditions: one partner purified
[4] = biological target: B1; assay: ELISA; His-tagged mouse Endophilin A1 SH3 domain coated onto a 96-well plate, overlaid with increasing concentrations of GST-tagged Dyn1-PRR peptides; two experiments with four replicates each; conditions: both partners purified

B1 showed a Kd [1] of 44 nM.

In the case of B2, the “stoichiometry N” value [2] is reported as 1.

For B3, the “binding relative to wild-type Dyn1xA-PRR (median)” value [3] was 68.2%.

B4 was tested, and the “fold difference in affinity from xA 746-864” value [4] was less than 2 fold and the “fold higher affinity than xA 751-798” value [4] was 5 fold.

B5 was tested, and the “binding relative to wild-type Dyn1xA-PRR (median)” value [3] was 14.2%.
